Source: the supplement of paper PMC12042874
± gives the uncertainty stated by the source.

assay: amyloid nucleation score (Sup35N fusion, yeast selection) (log enrichment); library NNK3; higher = more nucleation; inactive = no reads after selection
Summary of the method: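 Psi-negative yeast expressed Sup35N fused to peptides of 20 random codons. They were induced 24 hours with 100 μM copper sulfate, grown 7 days at 30°C without adenine and uracil, and their plasmid inserts from input and output were Illumina-sequenced. The nucleation score is the DiMSum log enrichment of output over input reads, centred on the mode score of non-aggregating sequences. Sequences with under 100 input reads were excluded.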

Q: For EGPNTVNCPTAS, which amyloid nucleation score is on record?
A: Its amyloid nucleation score is “inactive”.

Q: For EGRFLKLFWSGSL, which amyloid nucleation score is on record?
A: Its amyloid nucleation score is -0.108 ± 0.51.

Q: Which amyloid nucleation score does the source give for EGSEGSDMSRTFFYICYFIL here?
A: Its amyloid nucleation score is “inactive”.

Q: With EGSSSLYCSELRFV as the substance, how does the amyloid nucleation score read?
A: Its amyloid nucleation score is “inactive”.

Q: With EHEFYTKDNFLRGIFYNTNL as the substance, how does the amyloid nucleation score read?
A: The amyloid nucleation score was “inactive”.

Q: For EILVVVPIAGEMSIVFMRGW, which amyloid nucleation score is on record?
A: Its amyloid nucleation score is “inactive”.

Q: With EIMGICTLTVIFCKC as the substance, how does the amyloid nucleation score read?
A: Its amyloid nucleation score is 1.58 ± 0.1.

Q: Which amyloid nucleation score does the source give for EISSVAAYGSN here?
A: Its amyloid nucleation score is “inactive”.

Q: For EIVTRERIPEWYSLLLMGLP, which amyloid nucleation score is on record?
A: Its amyloid nucleation score is “inactive”.

Q: With EKFMPHTELLNVWGLRQILM as the substance, how does the amyloid nucleation score read?
A: The amyloid nucleation score was “inactive”.

Q: For ELAHKIMAM, which amyloid nucleation score is on record?
A: The amyloid nucleation score was “inactive”.

Q: With ELGMQSNGSSNDRLERRRIR as the substance, how does the amyloid nucleation score read?
A: The amyloid nucleation score was “inactive”.

Q: For ELIKCFFYYNDVGV, which amyloid nucleation score is on record?
A: The amyloid nucleation score was “inactive”.

Q: With ELLKPCNVCYRWYNTHALLV as the substance, how does the amyloid nucleation score read?
A: The amyloid nucleation score was 0.724 ± 0.18.

Q: With ELRTNYRKLLSSQAEVGCMV as the substance, how does the amyloid nucleation score read?
A: The amyloid nucleation score was “inactive”.

Q: For ELSANTSFTNSHMTMTTKLF, which amyloid nucleation score is on record?
A: Its amyloid nucleation score is “inactive”.

Q: With ELVQKGHGIEWERHGVLFGE as the substance, how does the amyloid nucleation score read?
A: The amyloid nucleation score was “inactive”.

Q: With EMAEAGTFEGYSLSVSVSAD as the substance, how does the amyloid nucleation score read?
A: Its amyloid nucleation score is “inactive”.

Q: Which amyloid nucleation score does the source give for EMCRN here?
A: The amyloid nucleation score was “inactive”.

Q: With EMLKVLVHS as the substance, how does the amyloid nucleation score read?
A: The amyloid nucleation score was “inactive”.

Q: Which amyloid nucleation score does the source give for EMMLWSFNREFMTFYTRSVD here?
A: The amyloid nucleation score was “inactive”.

Q: For ENMIRFLRDSLCGSFYNLPL, which amyloid nucleation score is on record?
A: The amyloid nucleation score was “inactive”.

Q: For ENPVSCKAIYYTVSIITSFS, which amyloid nucleation score is on record?
A: The amyloid nucleation score was “inactive”.

Q: Which amyloid nucleation score does the source give for ENSGWSKRVFSSFFMIAMMY here?
A: Its amyloid nucleation score is “inactive”.

Q: With EPESTRMGLSTTILPVFRCL as the substance, how does the amyloid nucleation score read?
A: Its amyloid nucleation score is -0.158 ± 0.83.

Q: With EQSTRKGNR as the substance, how does the amyloid nucleation score read?
A: Its amyloid nucleation score is “inactive”.

Q: Which amyloid nucleation score does the source give for ERARAAWSNGKAGLLWSGPG here?
A: The amyloid nucleation score was “inactive”.

Q: Which amyloid nucleation score does the source give for ERIIFYCNRVRRMLYGGLVR here?
A: Its amyloid nucleation score is “inactive”.

Q: Which amyloid nucleation score does the source give for ERQVYMVLGSICRKPTMERS here?
A: The amyloid nucleation score was -1.05 ± 1.9.

Q: For ERVKWDKRMHPVDHWHVTVS, which amyloid nucleation score is on record?
A: Its amyloid nucleation score is “inactive”.

Q: For ERVTRSMWTVGKRYRTGK, which amyloid nucleation score is on record?
A: Its amyloid nucleation score is “inactive”.

Q: Which amyloid nucleation score does the source give for ESCRWLLVFKMVCWQ here?
A: The amyloid nucleation score was “inactive”.

Q: Which amyloid nucleation score does the source give for ESDFRLYSCFDWNVVAMNYR here?
A: Its amyloid nucleation score is 1.44 ± 0.074.

Q: For ESIVVRF, which amyloid nucleation score is on record?
A: Its amyloid nucleation score is “inactive”.

Q: For ESLATNQVDMFSLSVRIFGP, which amyloid nucleation score is on record?
A: Its amyloid nucleation score is “inactive”.

Q: With ESLEMVWPRAMR as the substance, how does the amyloid nucleation score read?
A: Its amyloid nucleation score is “inactive”.

Q: For ESNGVSGPAQMERDTVPEVP, which amyloid nucleation score is on record?
A: The amyloid nucleation score was “inactive”.

Q: For ESSRRYEVCCLMW, which amyloid nucleation score is on record?
A: The amyloid nucleation score was “inactive”.

Q: With ESVSNSYVQTKWEYQLC as the substance, how does the amyloid nucleation score read?
A: The amyloid nucleation score was “inactive”.

Q: For ETESATQPVTVIGVSELIRL, which amyloid nucleation score is on record?
A: Its amyloid nucleation score is “inactive”.

Q: For ETGYKCAKGFYRCTGRGMVW, which amyloid nucleation score is on record?
A: Its amyloid nucleation score is “inactive”.

Q: For ETKSCWQL, which amyloid nucleation score is on record?
A: The amyloid nucleation score was “inactive”.

Q: Which amyloid nucleation score does the source give for ETMVIDWCSTVDRVR here?
A: The amyloid nucleation score was “inactive”.

Q: With ETYYFSVGFFY as the substance, how does the amyloid nucleation score read?
A: The amyloid nucleation score was “inactive”.

Q: Which amyloid nucleation score does the source give for EVGCV here?
A: The amyloid nucleation score was 0.76 ± 0.14.

Q: With EVLLFVFKEGTHLVGLW as the substance, how does the amyloid nucleation score read?
A: The amyloid nucleation score was “inactive”.

Q: Which amyloid nucleation score does the source give for EVLYR here?
A: Its amyloid nucleation score is “inactive”.

Q: With EVSFDNLRGWH as the substance, how does the amyloid nucleation score read?
A: The amyloid nucleation score was “inactive”.

Q: With EVSGYINMR as the substance, how does the amyloid nucleation score read?
A: Its amyloid nucleation score is “inactive”.

Q: With EVSLFVTHIL as the substance, how does the amyloid nucleation score read?
A: Its amyloid nucleation score is “inactive”.

Q: For EVVGVYRERMSSFLLQGVLL, which amyloid nucleation score is on record?
A: The amyloid nucleation score was -0.042 ± 0.98.

Q: With EVYFKMAQPLLHWDYERMQV as the substance, how does the amyloid nucleation score read?
A: Its amyloid nucleation score is “inactive”.

Q: With EWKVLYFFGDAFRLFNRWSG as the substance, how does the amyloid nucleation score read?
A: The amyloid nucleation score was “inactive”.

Q: For EWVALNSSYLWYCPVM, which amyloid nucleation score is on record?
A: Its amyloid nucleation score is “inactive”.

Q: For EWVANPSFGYAEWLLV, which amyloid nucleation score is on record?
A: The amyloid nucleation score was “inactive”.

Q: With EYLLSSMRLSVILSAWYARC as the substance, how does the amyloid nucleation score read?
A: Its amyloid nucleation score is “inactive”.

Q: For EYPFFIKSQGR, which amyloid nucleation score is on record?
A: The amyloid nucleation score was “inactive”.

Q: For EYSVRADPGREMNGEISAWV, which amyloid nucleation score is on record?
A: Its amyloid nucleation score is “inactive”.

Q: Which amyloid nucleation score does the source give for FACFAVIILHVIMYVRMSSV here?
A: The amyloid nucleation score was “inactive”.

Q: For FACRVGGEHGGV, which amyloid nucleation score is on record?
A: The amyloid nucleation score was “inactive”.

Q: For FAGCTVGLTNYKRLWICVN, which amyloid nucleation score is on record?
A: The amyloid nucleation score was 0.092 ± 0.72.

Q: Which amyloid nucleation score does the source give for FAGDLRDCWFLSFV here?
A: Its amyloid nucleation score is “inactive”.

Q: With FAISSILSMDAPGLDQIDRF as the substance, how does the amyloid nucleation score read?
A: The amyloid nucleation score was “inactive”.

Q: For FARVSVESRGGNVTFACLCI, which amyloid nucleation score is on record?
A: Its amyloid nucleation score is 1.73 ± 0.12.

Q: For FATVDDMSTGFRYIFLITRA, which amyloid nucleation score is on record?
A: Its amyloid nucleation score is “inactive”.
